{"source": "patent US20210292396A1", "assay_in_all_cases": "cell-based or functional assay", "key": {"[1]": {"biological_target": "Env of HIV isolate 001428-2.42 (clade C) (HIV)"}, "[2]": {"biological_target": "Env of HIV isolate 00836-2.5 (clade C) (HIV)"}, "[3]": {"biological_target": "Env of HIV isolate 242-14 (clade AG) (HIV)"}, "[4]": {"biological_target": "Env of HIV isolate 263-8 (clade AG) (HIV)"}, "[5]": {"biological_target": "Env of HIV isolate 3589.v1.c4 (clade AC) (HIV)"}, "[6]": {"biological_target": "Env of HIV isolate 6101.10 (clade B) (HIV)"}, "[7]": {"biological_target": "Env of HIV isolate 6405.v4.c34 (clade D) (HIV)"}, "[8]": {"biological_target": "Env of HIV isolate BB539.2B13 (clade A) (HIV)"}, "[9]": {"biological_target": "Env of HIV isolate BJOX028000.10.3 (clade AE) (HIV)"}, "[10]": {"biological_target": "Env of HIV isolate BX08.16 (clade B) (HIV)"}, "[11]": {"biological_target": "Env of HIV isolate C4118.09 (clade AE) (HIV)"}, "[12]": {"biological_target": "Env of HIV isolate CNE20 (clade BC) (HIV)"}, "[13]": {"biological_target": "Env of HIV isolate CNE40 (clade BC) (HIV)"}, "[14]": {"biological_target": "Env of HIV isolate DU172.17 (clade C) (HIV)"}, "[15]": {"biological_target": "Env of HIV isolate KNH1209.18 (clade A) (HIV)"}, "[16]": {"biological_target": "Env of HIV isolate Q23.17 (clade A) (HIV)"}, "[17]": {"biological_target": "Env of HIV isolate RHPA.7 (clade B) (HIV)"}, "[18]": {"biological_target": "Env of HIV isolate T257-31 (clade AG) (HIV)"}, "[19]": {"biological_target": "Env of HIV isolate UG021.16 (clade D) (HIV)"}, "[20]": {"biological_target": "Env of HIV isolate X1254.c3 (clade G) (HIV)"}, "[21]": {"biological_target": "HIV Env of isolate 00836-2.5 (HIV)"}, "[22]": {"biological_target": "HIV Env of isolate 0260.v5.c36 (HIV)"}, "[23]": {"biological_target": "HIV Env of isolate 16055-2.3 (HIV)"}, "[24]": {"biological_target": "HIV Env of isolate 16845-2.22 (HIV)"}, "[25]": {"biological_target": "HIV Env of isolate 235-47 (HIV)"}, "[26]": {"biological_target": "HIV Env of isolate 242-14 (HIV)"}, "[27]": {"biological_target": "HIV Env of isolate 25925-2.22 (HIV)"}, "[28]": {"biological_target": "HIV Env of isolate 26191-2.48 (HIV)"}, "[29]": {"biological_target": "HIV Env of isolate 271-11 (HIV)"}, "[30]": {"biological_target": "HIV Env of isolate 286.36 (HIV)"}, "[31]": {"biological_target": "HIV Env of isolate 620345.c1 (HIV)"}, "[32]": {"biological_target": "HIV Env of isolate BS208.B1 (HIV)"}, "[33]": {"biological_target": "HIV Env of isolate Bal.01 (HIV)"}, "[34]": {"biological_target": "HIV Env of isolate C1080.c3 (HIV)"}, "[35]": {"biological_target": "HIV Env of isolate CAP210.E8 (HIV)"}, "[36]": {"biological_target": "HIV Env of isolate CNE14 (HIV)"}, "[37]": {"biological_target": "HIV Env of isolate CNE20 (HIV)"}, "[38]": {"biological_target": "HIV Env of isolate CNE4 (HIV)"}, "[39]": {"biological_target": "HIV Env of isolate CNE57 (HIV)"}, "[40]": {"biological_target": "HIV Env of isolate CNE8 (HIV)"}, "[41]": {"biological_target": "HIV Env of isolate M02138 (HIV)"}, "[42]": {"biological_target": "HIV Env of isolate NKU3006.ec1 (HIV)"}, "[43]": {"biological_target": "HIV Env of isolate Q23.17 (HIV)"}, "[44]": {"biological_target": "HIV Env of isolate QH209.14M.A2 (HIV)"}, "[45]": {"biological_target": "HIV Env of isolate R1166.c1 (HIV)"}, "[46]": {"biological_target": "HIV Env of isolate SC422.8 (HIV)"}, "[47]": {"biological_target": "HIV Env of isolate T251-18 (HIV)"}, "[48]": {"biological_target": "HIV Env of isolate TV1.29 (HIV)"}, "[49]": {"biological_target": "HIV Env of isolate X1193.c1 (HIV)"}, "[50]": {"biological_target": "HIV Env of isolate X2131.C1.B5 (HIV)"}, "[51]": {"biological_target": "HIV Env of isolate ZA012.29 (HIV)"}, "[52]": {"biological_target": "HIV Env of isolate ZM233.6 (HIV)"}, "[53]": {"biological_target": "HIV Env of isolate ZM53.12 (HIV)"}, "[54]": {"biological_target": "HIV Env of isolate ZM55.28a (HIV)"}}, "data": [{"substance": "PGT121 (antibody)", "values": [{"measurement": "IC50, pseudovirus neutralization", "setting": "[1]", "value": 0.0337, "unit": "µg/mL"}, {"measurement": "IC50, pseudovirus neutralization", "setting": "[2]", "value": "> 50", "unit": "µg/mL"}, {"measurement": "IC50, pseudovirus neutralization", "setting": "[3]", "value": "> 50", "unit": "µg/mL"}, {"measurement": "IC50, pseudovirus neutralization", "setting": "[4]", "value": 0.484, "unit": "µg/mL"}, {"measurement": "IC50, pseudovirus neutralization", "setting": "[5]", "value": "> 50", "unit": "µg/mL"}, {"measurement": "IC50, pseudovirus neutralization", "setting": "[6]", "value": 0.0123, "unit": "µg/mL"}, {"measurement": "IC50, pseudovirus neutralization", "setting": "[7]", "value": 0.042, "unit": "µg/mL"}, {"measurement": "IC50, pseudovirus neutralization", "setting": "[8]", "value": "> 50", "unit": "µg/mL"}, {"measurement": "IC50, pseudovirus neutralization", "setting": "[9]", "value": "> 50", "unit": "µg/mL"}, {"measurement": "IC50, pseudovirus neutralization", "setting": "[10]", "value": 0.00933, "unit": "µg/mL"}, {"measurement": "IC50, pseudovirus neutralization", "setting": "[11]", "value": "> 50", "unit": "µg/mL"}, {"measurement": "IC50, pseudovirus neutralization", "setting": "[12]", "value": 0.005, "unit": "µg/mL"}, {"measurement": "IC50, pseudovirus neutralization", "setting": "[13]", "value": 0.281, "unit": "µg/mL"}, {"measurement": "IC50, pseudovirus neutralization", "setting": "[14]", "value": 0.065, "unit": "µg/mL"}, {"measurement": "IC50, pseudovirus neutralization", "setting": "[15]", "value": 0.0117, "unit": "µg/mL"}, {"measurement": "IC50, pseudovirus neutralization", "setting": "[16]", "value": 0.0107, "unit": "µg/mL"}, {"measurement": "IC50, pseudovirus neutralization", "setting": "[17]", "value": 0.0357, "unit": "µg/mL"}, {"measurement": "IC50, pseudovirus neutralization", "setting": "[18]", "value": "> 50", "unit": "µg/mL"}, {"measurement": "IC50, pseudovirus neutralization", "setting": "[19]", "value": 0.916, "unit": "µg/mL"}, {"measurement": "IC50, pseudovirus neutralization", "setting": "[20]", "value": 0.0347, "unit": "µg/mL"}, {"measurement": "IC80, pseudovirus neutralization", "setting": "[21]", "value": "> 50", "unit": "µg/mL"}, {"measurement": "IC80", "setting": "[22]", "value": 0.159, "unit": "µg/mL"}, {"measurement": "IC80, pseudovirus neutralization", "setting": "[23]", "value": 2.78, "unit": "µg/mL"}, {"measurement": "IC80, pseudovirus neutralization", "setting": "[24]", "value": 18.6, "unit": "µg/mL"}, {"measurement": "IC80", "setting": "[25]", "value": 0.614, "unit": "µg/mL"}, {"measurement": "IC80", "setting": "[26]", "value": "> 50", "unit": "µg/mL"}, {"measurement": "IC80, pseudovirus neutralization", "setting": "[27]", "value": 0.0867, "unit": "µg/mL"}, {"measurement": "IC80, pseudovirus neutralization", "setting": "[28]", "value": 0.236, "unit": "µg/mL"}, {"measurement": "IC80", "setting": "[29]", "value": "> 50", "unit": "µg/mL"}, {"measurement": "IC80, pseudovirus neutralization", "setting": "[30]", "value": 0.027, "unit": "µg/mL"}, {"measurement": "IC80", "setting": "[31]", "value": "> 50", "unit": "µg/mL"}, {"measurement": "IC80", "setting": "[32]", "value": "> 50", "unit": "µg/mL"}, {"measurement": "IC80", "setting": "[33]", "value": 0.0277, "unit": "µg/mL"}, {"measurement": "IC80", "setting": "[34]", "value": "> 50", "unit": "µg/mL"}, {"measurement": "IC80, pseudovirus neutralization", "setting": "[35]", "value": "> 50", "unit": "µg/mL"}, {"measurement": "IC80", "setting": "[36]", "value": 0.0243, "unit": "µg/mL"}, {"measurement": "IC80, pseudovirus neutralization", "setting": "[37]", "value": 0.0127, "unit": "µg/mL"}, {"measurement": "IC80", "setting": "[38]", "value": 25.3, "unit": "µg/mL"}, {"measurement": "IC80", "setting": "[39]", "value": 0.0777, "unit": "µg/mL"}, {"measurement": "IC80", "setting": "[40]", "value": "> 50", "unit": "µg/mL"}, {"measurement": "IC80", "setting": "[41]", "value": "> 50", "unit": "µg/mL"}, {"measurement": "IC80, pseudovirus neutralization", "setting": "[42]", "value": "> 50", "unit": "µg/mL"}, {"measurement": "IC80", "setting": "[43]", "value": 0.0267, "unit": "µg/mL"}, {"measurement": "IC80", "setting": "[44]", "value": "> 50", "unit": "µg/mL"}, {"measurement": "IC80", "setting": "[45]", "value": "> 50", "unit": "µg/mL"}, {"measurement": "IC80", "setting": "[46]", "value": 0.3, "unit": "µg/mL"}, {"measurement": "IC80", "setting": "[47]", "value": 23.2, "unit": "µg/mL"}, {"measurement": "IC80, pseudovirus neutralization", "setting": "[48]", "value": 0.438, "unit": "µg/mL"}, {"measurement": "IC80, pseudovirus neutralization", "setting": "[49]", "value": 0.147, "unit": "µg/mL"}, {"measurement": "IC80, pseudovirus neutralization", "setting": "[50]", "value": 0.036, "unit": "µg/mL"}, {"measurement": "IC80, pseudovirus neutralization", "setting": "[51]", "value": 0.0347, "unit": "µg/mL"}, {"measurement": "IC80, pseudovirus neutralization", "setting": "[52]", "value": 3.6, "unit": "µg/mL"}, {"measurement": "IC80, pseudovirus neutralization", "setting": "[53]", "value": 0.00767, "unit": "µg/mL"}, {"measurement": "IC80, pseudovirus neutralization", "setting": "[54]", "value": 0.216, "unit": "µg/mL"}]}]}
